Reference: publication PMC5467213, “Architecture of the RNA polymerase II-Paf1C-TFIIS transcription elongation complex” (Nature Communications, 2017)

Experiments:
Rpb2 (Pol II subunit) = biological target: T1, Rpb2 (Pol II subunit) (yeast, UniProt P08518 1-1224); assay: cross-linking; Pol II-Paf1C-TFIIS EC after SEC, 425 μg/ml, 0.5 mM BS3, 30 min, 30 °C; trypsin, Orbitrap Fusion LC-MS/MS, pLink, FDR 1%; details: both partners purified
T1 construct: Rpb2, subunit of yeast Pol II; source: part of purified Pol II
T1 sequence (P08518 whole entry, the tested form may be a part): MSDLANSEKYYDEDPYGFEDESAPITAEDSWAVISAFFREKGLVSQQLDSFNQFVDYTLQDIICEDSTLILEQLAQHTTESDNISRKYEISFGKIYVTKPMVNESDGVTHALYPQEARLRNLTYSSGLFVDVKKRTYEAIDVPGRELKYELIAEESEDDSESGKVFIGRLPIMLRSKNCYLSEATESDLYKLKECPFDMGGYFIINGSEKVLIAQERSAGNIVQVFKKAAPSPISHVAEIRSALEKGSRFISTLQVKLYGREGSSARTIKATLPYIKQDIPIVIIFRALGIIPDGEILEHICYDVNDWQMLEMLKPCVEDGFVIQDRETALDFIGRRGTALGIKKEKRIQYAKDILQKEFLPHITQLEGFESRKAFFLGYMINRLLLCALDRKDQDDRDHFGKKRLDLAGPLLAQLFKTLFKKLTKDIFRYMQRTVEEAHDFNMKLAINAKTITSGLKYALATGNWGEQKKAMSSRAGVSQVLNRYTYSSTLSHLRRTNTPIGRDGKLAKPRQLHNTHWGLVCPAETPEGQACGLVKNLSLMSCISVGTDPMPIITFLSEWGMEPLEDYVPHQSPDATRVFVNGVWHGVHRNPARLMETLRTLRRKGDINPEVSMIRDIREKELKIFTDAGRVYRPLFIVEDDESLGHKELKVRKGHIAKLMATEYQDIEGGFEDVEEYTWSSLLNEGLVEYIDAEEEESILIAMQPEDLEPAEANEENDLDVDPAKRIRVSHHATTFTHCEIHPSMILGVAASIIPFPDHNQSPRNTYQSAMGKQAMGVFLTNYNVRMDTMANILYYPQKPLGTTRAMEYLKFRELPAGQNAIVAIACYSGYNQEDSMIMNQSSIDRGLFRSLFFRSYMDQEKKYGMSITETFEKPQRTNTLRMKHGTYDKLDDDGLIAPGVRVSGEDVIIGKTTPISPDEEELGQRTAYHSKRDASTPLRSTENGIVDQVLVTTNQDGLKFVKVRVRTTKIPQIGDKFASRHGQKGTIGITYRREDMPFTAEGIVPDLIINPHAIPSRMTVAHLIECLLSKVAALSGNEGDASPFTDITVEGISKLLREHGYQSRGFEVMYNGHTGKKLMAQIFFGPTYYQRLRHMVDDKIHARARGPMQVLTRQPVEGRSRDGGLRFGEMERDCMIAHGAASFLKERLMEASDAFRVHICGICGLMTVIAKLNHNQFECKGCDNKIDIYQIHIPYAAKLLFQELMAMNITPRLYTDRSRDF

Ctr9-ΔC913 = biological target: T2, Ctr9-ΔC913 (S. cerevisiae, UniProt P89105 1-913); assay: as above; details: both partners purified
T2 construct: Ctr9, S. cerevisiae, variant lacking 164 amino acids at its C terminus (Ctr9-ΔC913); also called Ctr9 (in the Pol II-Paf1C-TFIIS EC); source: E. coli BL21 CodonPlus(DE3)RIL, coexpressed with the other subunits; in lysate and purified as part of Paf1C-Ctr9-ΔC913
T2 sequence (looked up): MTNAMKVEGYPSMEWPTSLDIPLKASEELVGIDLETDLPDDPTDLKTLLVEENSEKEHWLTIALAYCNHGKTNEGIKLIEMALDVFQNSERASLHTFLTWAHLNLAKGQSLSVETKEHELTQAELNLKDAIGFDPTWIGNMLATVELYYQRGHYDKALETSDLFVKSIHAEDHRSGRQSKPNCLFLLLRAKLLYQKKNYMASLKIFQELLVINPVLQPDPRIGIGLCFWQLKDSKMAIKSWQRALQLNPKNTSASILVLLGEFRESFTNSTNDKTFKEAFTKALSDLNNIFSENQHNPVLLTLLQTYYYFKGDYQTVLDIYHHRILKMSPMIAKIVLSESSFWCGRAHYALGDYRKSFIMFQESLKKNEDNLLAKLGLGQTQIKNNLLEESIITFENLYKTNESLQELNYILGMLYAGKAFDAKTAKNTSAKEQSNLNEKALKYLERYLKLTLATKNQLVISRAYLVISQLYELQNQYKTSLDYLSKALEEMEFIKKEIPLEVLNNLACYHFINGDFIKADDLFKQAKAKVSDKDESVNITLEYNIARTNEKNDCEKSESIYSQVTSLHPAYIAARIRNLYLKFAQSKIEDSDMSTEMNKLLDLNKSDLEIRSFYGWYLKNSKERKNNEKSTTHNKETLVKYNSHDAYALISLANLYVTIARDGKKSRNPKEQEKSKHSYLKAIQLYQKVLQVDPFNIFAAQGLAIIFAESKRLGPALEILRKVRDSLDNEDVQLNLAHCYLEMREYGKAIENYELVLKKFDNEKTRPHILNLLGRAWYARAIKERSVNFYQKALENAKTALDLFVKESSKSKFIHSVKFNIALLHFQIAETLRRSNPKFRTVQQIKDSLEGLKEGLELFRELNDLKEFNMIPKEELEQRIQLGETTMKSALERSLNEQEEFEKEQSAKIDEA

Rtf1 = biological target: T3, Rtf1 (S. cerevisiae, UniProt P53064 1-558); assay: as above; details: both partners purified
T3 construct: Rtf1, S. cerevisiae, full length, amplified from genomic DNA; source: E. coli BL21 CodonPlus(DE3)RIL, coexpressed with Cdc73; in lysate and purified as part of Paf1C
T3 sequence (P53064 whole entry): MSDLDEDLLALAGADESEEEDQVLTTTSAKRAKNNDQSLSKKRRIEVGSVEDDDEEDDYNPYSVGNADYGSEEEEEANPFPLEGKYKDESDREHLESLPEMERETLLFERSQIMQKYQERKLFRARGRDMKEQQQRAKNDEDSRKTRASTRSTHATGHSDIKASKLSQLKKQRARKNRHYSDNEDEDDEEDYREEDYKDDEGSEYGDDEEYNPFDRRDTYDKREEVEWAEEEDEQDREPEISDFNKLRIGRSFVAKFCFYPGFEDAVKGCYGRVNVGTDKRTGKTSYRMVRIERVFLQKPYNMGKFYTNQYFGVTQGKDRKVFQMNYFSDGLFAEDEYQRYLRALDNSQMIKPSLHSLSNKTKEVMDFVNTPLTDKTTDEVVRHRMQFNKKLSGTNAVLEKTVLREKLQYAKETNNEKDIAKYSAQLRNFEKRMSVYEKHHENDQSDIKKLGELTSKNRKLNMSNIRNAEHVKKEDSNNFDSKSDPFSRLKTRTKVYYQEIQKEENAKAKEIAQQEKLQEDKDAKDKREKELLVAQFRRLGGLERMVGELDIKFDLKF

Leo1 = biological target: T4, Leo1 (S. cerevisiae, UniProt P38439 1-464); assay: as above; details: both partners purified
T4 construct: Leo1, S. cerevisiae, open reading frame chemically synthesized (codon-optimised), in pCDFDuet-1; source: E. coli BL21 CodonPlus(DE3)RIL, coexpressed with the other subunits; in lysate and purified as part of Paf1C
T4 sequence (looked up): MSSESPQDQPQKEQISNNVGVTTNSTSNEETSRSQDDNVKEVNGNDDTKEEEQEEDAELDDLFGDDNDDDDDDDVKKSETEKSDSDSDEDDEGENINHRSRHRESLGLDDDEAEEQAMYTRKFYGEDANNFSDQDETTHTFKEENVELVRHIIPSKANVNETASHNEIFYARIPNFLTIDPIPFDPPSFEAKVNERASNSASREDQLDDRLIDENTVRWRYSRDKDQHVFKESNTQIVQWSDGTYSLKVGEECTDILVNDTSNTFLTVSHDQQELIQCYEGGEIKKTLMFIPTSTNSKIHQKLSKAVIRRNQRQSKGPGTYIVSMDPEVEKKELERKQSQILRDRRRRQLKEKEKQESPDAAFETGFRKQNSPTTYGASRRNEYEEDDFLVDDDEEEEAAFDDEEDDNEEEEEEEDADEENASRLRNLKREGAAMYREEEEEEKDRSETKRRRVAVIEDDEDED

[1] = biological target: T5, Ctr9 (full length, C-terminal hexahistidine tag) (S. cerevisiae, UniProt P89105 1-1077); assay: co-purification after coexpression (Ni-NTA, cation exchange, SEC); subunits coexpressed in E. coli from three vectors, cells colysed; Ni-NTA (hexahistidine tag on Ctr9), HiTrap SP cation exchange, Superose 6 size exclusion; SDS-PAGE, subunits confirmed by mass spectrometry; details: partners not purified
T5 construct: Ctr9, S. cerevisiae, full length, amplified from genomic DNA, in pET24b; source: E. coli BL21 CodonPlus(DE3)RIL, coexpressed with the other subunits; in lysate and purified as part of Paf1C; not shown: His6, C-terminal, kept
T5 sequence (looked up): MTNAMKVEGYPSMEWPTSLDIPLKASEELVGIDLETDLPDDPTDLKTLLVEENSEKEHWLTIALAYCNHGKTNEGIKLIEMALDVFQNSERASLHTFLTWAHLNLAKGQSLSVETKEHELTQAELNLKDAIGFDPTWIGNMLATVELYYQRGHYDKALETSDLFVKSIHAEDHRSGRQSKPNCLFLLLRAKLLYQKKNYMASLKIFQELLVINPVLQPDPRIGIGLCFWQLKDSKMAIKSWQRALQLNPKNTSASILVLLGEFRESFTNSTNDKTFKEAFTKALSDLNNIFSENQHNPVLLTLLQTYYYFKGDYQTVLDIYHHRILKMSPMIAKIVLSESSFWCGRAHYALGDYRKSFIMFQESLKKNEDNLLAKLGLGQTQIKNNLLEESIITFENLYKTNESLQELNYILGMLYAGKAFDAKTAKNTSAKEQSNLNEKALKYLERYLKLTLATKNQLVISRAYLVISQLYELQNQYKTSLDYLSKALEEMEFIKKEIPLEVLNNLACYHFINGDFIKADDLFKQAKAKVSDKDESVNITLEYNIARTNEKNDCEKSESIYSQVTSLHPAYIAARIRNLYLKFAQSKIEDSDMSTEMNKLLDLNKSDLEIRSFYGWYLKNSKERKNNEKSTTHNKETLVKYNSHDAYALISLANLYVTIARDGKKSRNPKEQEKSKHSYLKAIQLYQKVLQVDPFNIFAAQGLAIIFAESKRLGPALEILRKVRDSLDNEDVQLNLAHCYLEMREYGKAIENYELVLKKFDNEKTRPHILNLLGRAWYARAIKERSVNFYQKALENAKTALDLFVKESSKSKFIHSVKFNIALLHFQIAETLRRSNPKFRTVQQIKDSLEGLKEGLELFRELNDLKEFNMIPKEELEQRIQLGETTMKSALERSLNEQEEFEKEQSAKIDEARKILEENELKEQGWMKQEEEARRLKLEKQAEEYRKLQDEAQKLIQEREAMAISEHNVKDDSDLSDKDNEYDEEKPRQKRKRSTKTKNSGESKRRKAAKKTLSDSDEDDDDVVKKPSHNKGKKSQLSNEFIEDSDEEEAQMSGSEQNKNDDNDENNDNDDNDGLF

Measured: binding result

B1: Paf1 (natural protein, S. cerevisiae, UniProt P38351 1-445, looked up)
chain: MSKKQEYIAPIKYQNSLPVPQLPPKLLVYPESPETNADSSQLINSLYIKTNVTNLIQQDEDLGMPVDLMKFPGLLNKLDSKLLYGFDNVKLDKDDRILLRDPRIDRLTKTDISKVTFLRRTEYVSNTIAAHDNTSLKRKRRLDDGDSDDENLDVNHIISRVEGTFNKTDKWQHPVKKGVKMVKKWDLLPDTASMDQVYFILKFMGSASLDTKEKKSLNTGIFRPVELEEDEWISMYATDHKDSAILENELEKGMDEMDDDSHEGKIYKFKRIRDYDMKQVAEKPMTELAIRLNDKDGIAYYKPLRSKIELRRRRVNDIIKPLVKEHDIDQLNVTLRNPSTKEANIRDKLRMKFDPINFATVDEEDDEDEEQPEDVKKESEGDSKTEGSEQEGENEKDEEIKQEKENEQDEENKQDENRAADTPETSDAVHTEQKPEEEKETLQEE
notes: Paf1, S. cerevisiae, open reading frame chemically synthesized (codon-optimised), in pCDFDuet-1; also called polymerase-associated factor 1; source: E. coli BL21 CodonPlus(DE3)RIL, coexpressed with the other subunits; in lysate and purified as part of Paf1C
binds: all assays above
